These results are taken from paper PMC10045489 (Bioengineering, 2023).

For this assay, the target named is T1, receptor-binding domain of the SARS-CoV-2 spike protein fused to the maltose-binding protein (SARS-CoV-2, wild-type (Wuhan-Hu-1 …, UniProt P0DTC2)).
T1 construct: also called MBP-RBD; RBD-MBP
Briefly: BLI. Particulars: both partners purified.

B1: VHH72 nanobody (VHH)
VHH: QVQLQESGGGLVQAGGSLRLSCAASGRTFSEYAMGWFRQAPGKEREFVATISWSGGSTYYTDSVKGRFTISRDNAKNTVYLQMNSLKPDDTAVYYCAAAGLGTVVSEWDYDYDYWGQGTQVTVSS
notes: not shown: ecotin, N-terminal, cleaved; His-tag, N-terminal, cleaved
Regarding B1, the binding result is “binds”.
